T1: Nup88^517-742 (tags removed, from the co-purified complexes) (rat, UniProt O08658 517-742)
T1 sequence: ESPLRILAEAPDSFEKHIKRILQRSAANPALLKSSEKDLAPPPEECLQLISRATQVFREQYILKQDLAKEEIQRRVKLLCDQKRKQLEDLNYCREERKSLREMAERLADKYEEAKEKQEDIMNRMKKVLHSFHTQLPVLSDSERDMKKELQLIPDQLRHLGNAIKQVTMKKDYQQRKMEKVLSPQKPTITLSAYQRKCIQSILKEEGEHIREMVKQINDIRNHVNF


Columns and labels:
SEC-MALS = target: the molecule itself; experiment: SEC-MALS
[1] = target: T1, Nup88^517-742 (tags removed, from the …); experiment: SEC-MALS + other: densitometry of SDS-PAGE bands

| stoichiometry N [1] [Nup62 per Nup88] | Binder | stoichiometry N (SEC-MALS) |
| --- | --- | --- |
|  | His6-tagged Nup88^517-742 (domain or fragment) ESPLRILAEAPDSFEKHIKRILQRSAANPALLKSSEKDLAPPPEECLQLISRATQVFREQYILKQDLAKEEIQRRVKLLCDQKRKQLEDLNYCREERKSLREMAERLADKYEEAKEKQEDIMNRMKKVLHSFHTQLPVLSDSERDMKKELQLIPDQLRHLGNAIKQVTMKKDYQQRKMEKVLSPQKPTITLSAYQRKCIQSILKEEGEHIREMVKQINDIRNHVNF | 2 |
| 2 | Nup62^322-525 (tags removed, from the co-purified complexes) (domain or fragment) AVGTTTGPAMTYAQLESLINKWSLELEDQERHFLQQATQVNAWDRTLIENGEKITSLHREVEKVKLDQKRLDQELDFILSQQKELEDLLSPLEESVKEQSGTIYLQHADEEREKTYKLAENIDAQLKRMAQDLKDIIEHLNMAGGPADTSDPLQQICKILNAHMDSLQWVDQSSALLQRRVEEASRVCESRRKEQERSLRIAFD |  |
